The source of these data is patent publication US20240342305A1 (published 2024).

Assay [1] addresses T1, human GPC3 recombinant protein (purchased from Shanghai Rui Jin Biotechnology Co., Ltd.) (human, UniProt P51654 25-559, limits assumed).
T1 construct: Bought recombinant protein; also called huGPC3; antigen GPC3
As to the kind of experiment: SPR Biacore T200, human GPC3 amine-coupled to CM5 (305 RU), antibody as analyte, multi-cycle kinetics, 25 °C. On the procedure:
(§1) To quantitatively analyze the binding of antibody Y035 to antigen human GPC3, the affinity and kinetic parameters of antibody Y035 were measured by multi-cycle kinetic assay using Biacore T200 system (from GE). Antigen human GPC3 (purchased from Shanghai Rui-Jin Biotechnology Co., Ltd.) was coupled to carboxymethyl dextran surface of sensor chip CM5 through primary amino with NHS/EDC coupling according to the manufacturer's instructions, and the final amount of the conjugated ligand was 305RU. Kinetic measurements were performed in 1×HBS-EP+working buffer at 25° C., 30 μl/min, and regeneration condition was 10 mM Glycine-HCl (pH2.5), 10 μl/min for 25 seconds. In each round of the testing cycle, antibody Y035 of a certain concentration flowed over the chip surface. The interaction between the antibody and the antigen protein human GPC3 fixed on the chip caused the change of the molecular concentration on the surface of the sensor chip which was measured according to changes in SPR Signal and expressed in resonance units (RU). Time vs resonance unit (RU) was plotted and after RU value of the reference channel without fixed antigen was subtracted, the resulting sensorgram documents the entire reaction including the binding and dissociation processes. In different cycles of kinetic assay, the concentration of antibody Y035 was 6.25 nM, 12.5 nM, 25 nM, 50 nM and 100 nM, respectively. The resulting curves were evaluated using Biacore T200 evaluation software and the affinity KD values were calculated. Using the same method, the affinity and kinetic parameters of the parental murine monoclonal antibody 5A5 prior to humanization of Y035 were also assayed. The binding data of antibodies Y035 and 5A5 to human GPC3 proteins, respectively, are summarized in Table 2, and humanized antibody Y035 binds human GPC3 protein much better than mouse 5A5 after humanization.
On the technique in general: Surface plasmon resonance follows binding to a sensor surface in real time, without labels.

Assay [2] addresses T1, human GPC3 recombinant protein …. As to the kind of experiment: SPR Biacore T200, human GPC3 amine-coupled to CM5, antibody as analyte, multi-cycle kinetics, 25 °C. On the procedure:
as §1

Assay [3] has the same target. As to the kind of experiment: SPR Biacore T200, antibody captured by anti-human IgG (Fc), GPC3 as analyte, single-cycle kinetics, 25 °C. Here is the method: To quantitatively analyze the binding of P7D4 series antibodies to GPC3, the affinity and kinetic parameters of P7D4 series single-chain antibodies were measured by capture method using Biacore T200 system (from GE). An anti-human IgG (Fc) antibody (purchased from GE) was coupled to carboxymethyl dextran surface of sensor chip CM5 through primary amino with NHS/EDC coupling according to the manufacturer's instructions. Measurements were performed in 1×HBS-EP+working buffer at 25° C., 30 μl/min, and regeneration condition was 3 M MgCl₂, 10 μl/min for 30 seconds. In each round of the testing cycle, the antibody to be tested is firstly captured onto the chip. GPC3 of a certain concentration flowed over the chip surface. The interaction between human GPC3 and the captured antibody caused the change of the molecular concentration on the surface of the sensor chip which was measured according to changes in SPR Signal and expressed in resonance units (RU). Time vs resonance unit (RU) was plotted. The resulting sensorgram documents the entire reaction including the binding and dissociation processes (FIG. 4). In all single-cycle kinetics, GPC3 concentrations were 5 nM, 10 nM, 20 nM, 40 nM and 80 nM, respectively. The resulting curves were evaluated using Biacore T200 evaluation software and the affinity KD values were calculated.

The target in assay [4] is T2, recombinant human GPC6 (rhGPC6) (human, UniProt Q9Y625 24-529, limits assumed).
T2 sequence (looked up): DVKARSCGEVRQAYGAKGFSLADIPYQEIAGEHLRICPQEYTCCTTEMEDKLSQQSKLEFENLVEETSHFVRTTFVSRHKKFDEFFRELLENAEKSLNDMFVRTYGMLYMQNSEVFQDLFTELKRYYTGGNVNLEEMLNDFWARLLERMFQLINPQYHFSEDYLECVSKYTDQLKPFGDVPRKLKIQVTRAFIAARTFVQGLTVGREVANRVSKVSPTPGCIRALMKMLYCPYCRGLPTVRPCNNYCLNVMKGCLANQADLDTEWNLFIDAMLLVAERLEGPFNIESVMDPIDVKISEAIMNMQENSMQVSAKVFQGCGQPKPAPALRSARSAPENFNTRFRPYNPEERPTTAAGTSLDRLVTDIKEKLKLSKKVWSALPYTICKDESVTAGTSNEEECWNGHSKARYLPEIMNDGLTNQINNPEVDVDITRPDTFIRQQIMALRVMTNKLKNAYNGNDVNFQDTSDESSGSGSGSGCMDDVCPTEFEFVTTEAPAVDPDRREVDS
As to the kind of experiment: ELISA, antigen coated 100 ng/well, HRP anti-human Fc detection. Here is the method:
(§2) In order to analyze the binding specificity of P7D4 series antibody to GPC3 protein, binding activity of P7D4 series single chain antibody to human GPC family members, including recombinant human GPC1 (rhGPC1), GPC2 (rhGPC2), GPC3 (rhGPC3), GPC5 (rhGPC5) and GPC6 (rhGPC6) (purchased from Andy Biosciences (Shanghai) Co., Ltd.) was detected by ELISA, respectively.
(§3) For this purpose, the above 5 antigens were diluted with 0.1 M NaHCO₃ (pH 9.6) coating solution and each well was coated with 100 ng at 50 μl/well overnight at 4° C. and blocked with 2% (w/v) BSA in PBST for 2 hours at room temperature. The plate was then rinsed for three times with PBST and PBST was removed. Subsequently, 100 ng of each antibody protein in PBST was added to each well plate, and the assay for each sample was performed in duplecate wells. After incubated for 2 hours at 37° C., the plates were rinsed for three times with PBST followed by addition of 100 μl/well HRP-labeled rabbit anti-human Fc antibody (purchased from Shanghai Rui Jin Biotechnology Co., Ltd.) diluted at 1:20000 and incubated at 37° C. for 1 hour. For detection, wells were rinsed for three times with PBST followed by three times with PBS and finally with TMB for development for 10 min. The chromogenic reaction was stopped with 50 μl of 2 M H₂SO₄ per well, and extinction value was measured at 450 nm with enzyme-linked immunodetector (Bio-Rad).

For assay [5], the target named is T3, recombinant human GPC2 (rhGPC2) (human, UniProt Q8N158 24-554, limits assumed).
T3 sequence (looked up): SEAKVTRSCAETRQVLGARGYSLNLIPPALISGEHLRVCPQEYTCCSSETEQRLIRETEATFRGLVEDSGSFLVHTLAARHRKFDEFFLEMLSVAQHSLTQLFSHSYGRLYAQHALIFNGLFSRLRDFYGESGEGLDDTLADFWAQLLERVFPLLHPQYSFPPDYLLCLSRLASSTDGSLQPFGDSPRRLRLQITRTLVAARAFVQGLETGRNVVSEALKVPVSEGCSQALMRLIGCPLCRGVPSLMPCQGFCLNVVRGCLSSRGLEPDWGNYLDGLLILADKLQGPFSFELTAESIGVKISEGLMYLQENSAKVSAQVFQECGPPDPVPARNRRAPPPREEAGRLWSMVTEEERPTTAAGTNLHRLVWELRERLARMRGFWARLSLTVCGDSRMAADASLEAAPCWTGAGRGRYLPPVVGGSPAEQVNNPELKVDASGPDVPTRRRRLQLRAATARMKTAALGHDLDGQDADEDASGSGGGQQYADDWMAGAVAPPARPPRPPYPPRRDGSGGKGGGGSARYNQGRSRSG
The assay is described as above. On the procedure: as §2, §3

Assay [6] deals with T4, recombinant human GPC5 (rhGPC5) (human, UniProt P78333 25-551, limits assumed).
T4 sequence (looked up): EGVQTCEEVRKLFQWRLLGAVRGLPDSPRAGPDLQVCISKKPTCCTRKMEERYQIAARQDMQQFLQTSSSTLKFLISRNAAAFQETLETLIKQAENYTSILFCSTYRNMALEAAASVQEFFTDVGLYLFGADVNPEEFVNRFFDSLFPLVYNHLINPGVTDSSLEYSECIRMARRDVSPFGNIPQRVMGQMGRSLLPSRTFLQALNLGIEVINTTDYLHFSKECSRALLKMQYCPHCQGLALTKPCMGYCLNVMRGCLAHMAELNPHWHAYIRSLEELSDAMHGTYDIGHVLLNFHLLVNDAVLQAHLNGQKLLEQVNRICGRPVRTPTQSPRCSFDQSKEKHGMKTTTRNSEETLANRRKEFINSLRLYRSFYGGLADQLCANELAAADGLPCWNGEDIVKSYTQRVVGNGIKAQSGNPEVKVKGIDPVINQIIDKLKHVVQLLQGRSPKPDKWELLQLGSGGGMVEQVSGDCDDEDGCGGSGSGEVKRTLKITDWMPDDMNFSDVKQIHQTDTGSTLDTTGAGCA
The assay is described as above. Here is the method: as §2, §3

Assay [7] addresses T5, recombinant human GPC1 (rhGPC1) (human, UniProt P35052 24-530, limits assumed).
T5 sequence (looked up): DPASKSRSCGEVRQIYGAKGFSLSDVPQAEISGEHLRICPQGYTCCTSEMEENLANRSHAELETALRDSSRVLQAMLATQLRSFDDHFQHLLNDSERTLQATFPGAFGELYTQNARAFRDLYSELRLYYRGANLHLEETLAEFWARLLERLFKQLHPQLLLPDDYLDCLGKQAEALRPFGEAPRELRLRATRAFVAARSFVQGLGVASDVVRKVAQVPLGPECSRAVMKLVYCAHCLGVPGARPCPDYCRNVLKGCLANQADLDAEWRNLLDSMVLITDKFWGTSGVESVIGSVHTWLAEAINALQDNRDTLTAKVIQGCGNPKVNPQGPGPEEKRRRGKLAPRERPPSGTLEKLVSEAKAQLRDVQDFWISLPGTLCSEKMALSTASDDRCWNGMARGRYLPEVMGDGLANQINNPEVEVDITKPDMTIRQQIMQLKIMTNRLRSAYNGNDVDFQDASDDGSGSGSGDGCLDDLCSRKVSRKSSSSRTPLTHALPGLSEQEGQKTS
Described as above. On the procedure:
as §2, §3

B1: humanized antibody Y035 (antibody, V domains shown)
VH: EVQLVQSGAEVKKPGASVKVSCKASGYTFSDYEMHWVRQAPGQGLEWMGAIHPGSGDTAYNQRFKGRVTITADKSTSTAYMELSSLRSEDTAVYYCARFYSYAYWGQGTLVTVSA
VL: DIVMTQTPLSLPVTPGEPASISCRSSQSLVHSNGNTYLQWYLQKPGQSPQLLIYKVSNRFSGVPDRFSGSGSGTDFTLKISRVEAEDVGVYYCSQSIYVPYTFGQGTKLEIKR
notes: Whole antibody expressed in 293F from vectors pIH-hu12H (heavy) and pIK-hu12L (light), purified on Protein A, detected with goat anti-human antibody
Regarding B1, in assay [1], the Kd was 0.0634 nM, the koff worked out at 2.51e-05 s⁻¹ and the kon was 396000 M⁻¹ s⁻¹.

B2: parental murine monoclonal antibody 5A5 (antibody, V domains shown)
VH: QVQLQQSGTELVRPGASVKLSCKALGYTFTDYEMHWVKQTPVHGLEWIGAIHPGSGDTAYNQRFKGKATLTADKSSSTAYMEYSSLTSEDSAVYYCTRFYSYAYWGQGTLVTVSA
VL: DVVMTQTPLSLPVSLGDQASISCRSSQSLVHSNGNTYLQWYLQKPGQSPKLLIYKVSNRFSGVPDRFSGRGSGTDFTLKISRVEAEDLGVYFCSQSIYVPYTFGGGTKLEIKR
notes: Mouse hybridoma antibody purified from ascites on Protein G; also called mouse 5A5
Turning to B2, in assay [2], the Kd came out at 0.0819 nM, the off-rate (koff) stood at 2.3e-05 s⁻¹ and the kon was found to be 280000 M⁻¹ s⁻¹.

B3: P7D4 mutant single chain antibody am42 (scFv, not shown: a dimerising Fc or GST)
scFv: QVQLQESGGGLVQPGRSLRLSCAASGFTFSSYAMHWVRQAPGKGLEWVSAISSSGGSTYYADSVKGRFTISRDNSKNTLYLQMNSLRAEDTAVYYCAKDRRGSHADAFDVWGQGTLVTVSSGGGGSGGGGSGGGGSQSALTQPPSASGSPGQSVTISCTGTSSDVGLMHNVSWYQQYPGKAPKLLIYKSSSRPSGVPDRFSGSKSGTSASLAITGLQAEDGADYYCQSYDSSLRVVFGGGTKVTVLG
B3: the Kd in assay [3] worked out at 0.0821 nM. Further, the koff in assay [3] was found to be 6.7e-05 s⁻¹. Further, in assay [3], the kon is 816000 M⁻¹ s⁻¹. For the same molecule, the binding result in assay [4], in assay [5], in assay [6] and in assay [7] was “no binding (tested: 100 ng of each antibody protein per well)” each time.

A word on the Kd: it is the equilibrium constant for the complex coming apart. In general, koff refers to the rate constant with which the complex falls apart. As usually defined, the kon is a measure of how fast the partners come together.
